The text below walks through data of patent publication US6277617A, “Chemically modified enzymes” (Genencor International, Inc., priority 1997, dated 2001).

Substrate in this data set: C[C@H](NC(=O)CCC(=O)O)C(=O)N[C@@H](C)C(=O)N1CCC[C@H]1C(=O)N[C@@H](Cc1ccccc1)C(=O)Nc1ccc([N+](=O)[O-])cc1
Briefly: Hydrolysis of succinyl-L-Ala-L-Ala-L-Pro-L-Phe-p-nitroanilide, kinetic parameters. Type of data set: biochemical, Bacillus lentus. As to conditions: pH 7.5, 0.1 M sodium phosphate, 0.5 M NaCl, 1% DMSO, 25° C. Here is the method:
Activity, including the kinetic parameters kcat, KM, and kcat /KM were measured for hydrolysis of the synthetic peptide substrate succinyl-L-Ala-L-Ala-L-Pro-L-Phe-p-nitroanilide using the method described in Bonneau, P. et al. (1991) J. Am. Chem. Soc., 113(3):1030. Briefly, a small aliquot of subtilisin variant stock solution was added to a 1 cm cuvette containing substrate dissolved in 0.1 M sodium phosphate buffer, pH 7.5, containing 0.5 M NaCl and 1% DMSO, and thermostated at 25° C. or similarly at pH 8.6, 0.1 M tris buffer containing 0.05% Tween™80 and 1% DMSO. The reaction progress was followed spectrophotometrically by monitoring the absorbance of the reaction product p-nitroaniline at 410 nm using a Perkin Elmer λ2 spectrophotometer (Δε410 8800 M^-1 cm^-1).
The modified enzymes were prepared as described above after site-directed mutagenesis to replace the amino acid of interest with a cysteine. The kinetic parameters were determined at pH 7.5 as described above. The precursor protease was a Bacillus lentus subtilisin (SBL-WT).
To examine the effects of chemical modification on the pH profile of SBL, seven modified N62C mutants were made as described above. 0.02M ethylene diamine buffers of ionic strength 0.05M (adjusted with KCl) were employed with 1.25×10^-4 M succinyl-AAPF-pNA substrate and Kcat /KM measurements were performed as described above. Kcat /KM reflects the pKa of His64, part of the catalytic triad for SBL, in the free enzyme and is unaffected by nonproductive binding modes. Fersht, A. E. (1985) Enzyme Structure and Mechanism 2 ed., Freeman (New York). pKa was calculated using Graphit (McGeary & Associates, Middletown Conn.). The shift in pKa reflects a shift in the pH profile of SBL. Representative pH profiles for SBL N62C-Scylcohexyl (N62C-Scy) and SBL-WT are shown in FIG. 3 ([E]=1×10^-7 to 5×10^-8 M at 25° C.). Points were done in duplicate.

Where a chain is given by its changes, count along the chain named. Numbers in names are those of the source.

What is called Km is the concentration of substrate that gives half-maximal velocity. For orientation: kcat means the maximal rate divided by the concentration of active sites. As a reminder, the kcat/Km is the second-order rate constant that governs catalysis at low substrate concentration.

B1: Bacillus lentus subtilisin, wild type (SBL-WT) (Lederbergia lenta) (protein)
chain: AQSVPWGISRVQAPAAHNRGLTGSGVKVAVLDTGISTHPDLNIRGGASFVPGEPSTQDGNGHGTHVAGTIAALNNSIGVLGVAPSAELYAVKVLGASGSGSVSSIAQGLEWAGNNGMHVANLSLGSPSPSATLEQAVNSATSRGVLVVAASGNSGAGSISYPARYANAMAVGATDQNNNRASFSQYGAGLDIVAPGVNVQSTYPGSTYASLNGTSMATPHVAGAAALVKQKNPSWSNVQIRNHLKNTATSLGSTNLYGSGLVNAEAATR
notes: made in house; host or cells: B. subtilis
B1: where the note is “other: SBL-WT”, the Km turned out to be 550 µM, the kcat stood at 48 s⁻¹ and the kcat/Km worked out at 87000 M⁻¹ s⁻¹.

B2: Bacillus lentus subtilisin (SBL) variant N62C (Lederbergia lenta; N60C) (protein)
chain: B1 chain with N60C
notes: as for B1
As to B2, for the setting “other: N62C”, the Michaelis-Menten constant (Km) came to 1490 µM, the kcat came to 61 s⁻¹ and the kcat/Km was found to be 41000 M⁻¹ s⁻¹.
